Experimental findings from paper PMC6205950, “4-Chlorophenol Oxidation Depends on the Activation of an AraC-Type Transcriptional Regulator, CphR, in Rhodococcus sp. Strain YH-5B” (Frontiers in Microbiology, 2018) are described below.

Broadly, the Km is the substrate concentration at which the rate is half of its maximum. Broadly, the kcat is the number of substrate molecules converted per active site and unit of time at saturation.

Common to all, as to experiment: purified protein
For one data set, the system named is Oc1ccccc1. To be noted: 200 μM NADH, 25 μM FAD, 50 mM phosphate pH 7.5.
Another data set deals with O=[N+]([O-])c1cccc(O)c1. To be noted: 200 μM NADH, 25 μM FAD, 50 mM phosphate pH 7.5.
A further data set has as its system Oc1ccc(Cl)cc1. To be noted: 200 μM NADH, 25 μM FAD, 50 mM phosphate pH 7.5, text prints 8.7 ± 1.1.

For “two-component 4-CP monooxygenase (H6-CphA1 and H6-CphA2) (Rhodococcus sp. (in: high G+C Gram-positive bacteria))”, the Km is 9.6 ± 0.9 µM in the data set with Oc1ccccc1, 63.2 ± 7.7 µM with O=[N+]([O-])c1cccc(O)c1 and 8.7 ± 1.2 µM with Oc1ccc(Cl)cc1. The kcat in the data set on Oc1ccc(Cl)cc1 is 0.0103 ± 0.00067 s⁻¹.
